Test results published in IntAct's records for PubMed 9428768.

B1: Cell division control protein 24 (Saccharomyces cerevisiae), P11433 (parent)
chain: MAIQTRFASGTSLSDLKPKPSATSISIPMQNVMNKPVTEQDSLFHICANIRKRLEVLPQLKPFLQLAYQSSEVLSERQSLLLSQKQHQELLKSNGANRDSSDLAPTLRSSSISTATSLMSMEGISYTNSNPSATPNMEDTLLTFSMGILPITMDCDPVTQLSQLFQQGAPLCILFNSVKPQFKLPVIASDDLKVCKKSIYDFILGCKKHFAFNDEELFTISDVFANSTSQLVKVLEVVETLMNSSPTIFPSKSKTQQIMNAENQHRHQPQQSSKKHNEYVKIIKEFVATERKYVHDLEILDKYRQQLLDSNLITSEELYMLFPNLGDAIDFQRRFLISLEINALVEPSKQRIGALFMHSKHFFKLYEPWSIGQNAAIEFLSSTLHKMRVDESQRFIINNKLELQSFLYKPVQRLCRYPLLVKELLAESSDDNNTKELEAALDISKNIARSINENQRRTENHQVVKKLYGRVVNWKGYRISKFGELLYFDKVFISTTNSSSEPEREFEVYLFEKIIILFSEVVTKKSASSLILKKKSSTSASISASNITDNNGSPHHSYHKRHSNSSSSNNIHLSSSSAAAIIHSSTNSSDNNSNNSSSSSLFKLSANEPKLDLRGRIMIMNLNQIIPQNNRSLNITWESIKEQGNFLLKFKNEETRDNWSSCLQQLIHDLKNEQFKARHHSSTSTTSSTAKSSSMMSPTTTMNTPNHHNSRQTHDSMASFSSSHMKRVSDVLPKRRTTSSSFESEIKSISENFKNSIPESSILFRISYNNNSNNTSSSEIFTLLVEKVWNFDDLIMAINSKISNTHNNNISPITKIKYQDEDGDFVVLGSDEDWNVAKEMLAENNEKFLNIRLY
partner: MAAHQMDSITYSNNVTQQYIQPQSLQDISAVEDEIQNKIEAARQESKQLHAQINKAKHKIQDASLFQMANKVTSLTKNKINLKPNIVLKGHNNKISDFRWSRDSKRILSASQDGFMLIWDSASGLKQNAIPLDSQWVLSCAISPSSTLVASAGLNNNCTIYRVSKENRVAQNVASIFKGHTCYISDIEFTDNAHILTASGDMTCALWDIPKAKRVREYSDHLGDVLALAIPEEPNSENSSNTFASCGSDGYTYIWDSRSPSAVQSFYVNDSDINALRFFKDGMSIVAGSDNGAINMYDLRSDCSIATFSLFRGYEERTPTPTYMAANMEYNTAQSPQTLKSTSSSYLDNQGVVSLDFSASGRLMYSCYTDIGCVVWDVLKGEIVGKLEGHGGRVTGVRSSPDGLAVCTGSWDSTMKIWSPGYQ

Variants of: B1
Conditions: with gbb_yeast STE4, P18851

Variant	effect of a mutation on the interaction
S189F	disrupting interaction
